Source: the supplement of paper PMC11246515
± gives the standard deviation of the averaged measurements.

Assay: total protein half-life in vivo (active degradation + dilution); higher = more stable protein
[1] = E. coli NCM3722 delta-clpP delta-lon delta-hslV, growth: N-lim chemostat, doubling time 6 h
[2] = E. coli NCM3722 delta-clpP, growth: N-lim chemostat, doubling time 6 h
[3] = E. coli NCM3722 delta-hslV, growth: N-lim chemostat, doubling time 6 h
[4] = E. coli NCM3722 delta-lon, growth: N-lim chemostat, doubling time 6 h
[5] = E. coli NCM3722 delta-smpB, growth: N-lim chemostat, doubling time 6 h
[6] = wild type E. coli NCM3722, growth: C-lim chemostat, doubling time 3 h
[7] = wild type E. coli NCM3722, growth: C-lim chemostat, doubling time 6 h
[8] = wild type E. coli NCM3722, growth: C-lim chemostat, doubling time 12 h
[9] = wild type E. coli NCM3722, growth: N-lim chemostat, doubling time 6 h
[10] = wild type E. coli NCM3722, growth: N-lim chemostat, doubling time 12 h
[11] = wild type E. coli NCM3722, growth: P-lim chemostat, doubling time 6 h
[12] = wild type E. coli NCM3722, growth: P-lim chemostat, doubling time 12 h

Row | Sequence | total protein half-life in vivo [1] | total protein half-life in vivo [2] | total protein half-life in vivo [3] | total protein half-life in vivo [4] | total protein half-life in vivo [5] | total protein half-life in vivo [6] | total protein half-life in vivo [7] | total protein half-life in vivo [8] | total protein half-life in vivo [9] | total protein half-life in vivo [10] | total protein half-life in vivo [11] | total protein half-life in vivo [12]
1 | MLRIAKEALTFDDVLLVPAHSTVLPNTADLSTQLTKTIRLNIPMLSAAMDTVTEARLAIALAQEGGIGFIHKNMSIERQAEEVRRVKKHESGVVTDPQTVLPTTTLREVKELTERNGFAGYPVVTEENELVGIITGRDVRFVTDLNQPVSVYMTPKERLVTVREGEAREVVLAKMHEKRVEKALVVDDEFHLIGMITVKDFQKAERKPNACKDEQGRLRVGAAVGAGAGNEERVDALVAAGVDVLLIDSSHGHSEGVLQRIRETRAKYPDLQIIGGNVATAAGARALAEAGCSAVKVGIGPGSICTTRIVTGVGVPQITAVADAVEALEGTGIPVIADGGIRFSGDIAKAIAAGASAVMVGSMLAGTEESPGEIELYQGRSYKSYRGMGSLGAMSKGSSDRYFQSDNAADKLVPEGIEGRVAYKGRLKEIIHQQMGGLRSCMGLTGCGTIDELRTKAEFVRISGAGIQESHVHDVTITKESPNYRLGS [P0ADG7] | 5.001 ± 0.0064 h | 3.78 ± 0.047 h | 4.06 ± 0.047 h | 4.91 ± 0.38 h | 3.95 ± 0.36 h | 3.01 ± 0.44 h | 5.76 ± 0.073 h | 11.2 ± 1.9 h | 4.29 ± 0.39 h | 6.68 ± 0.18 h | 6.02 ± 0.29 h | 12.5 ± 0.63 h
2 | MLSAFQLENNRLTRLEVEESQPLVNAVWIDLVEPDDDERLRVQSELGQSLATRPELEDIEASARFFEDDDGLHIHSFFFFEDAEDHAGNSTVAFTIRDGRLFTLRERELPAFRLYRMRARSQSMVDGNAYELLLDLFETKIEQLADEIENIYSDLEQLSRVIMEGHQGDEYDEALSTLAELEDIGWKVRLCLMDTQRALNFLVRKARLPGGQLEQAREILRDIESLLPHNESLFQKVNFLMQAAMGFINIEQNRIIKIFSVVSVVFLPPTLVASSYGMNFEFMPELKWSFGYPGAIIFMILAGLAPYLYFKRKNWL [P0ABI4] | 5.99 ± 0.074 h | 6.305 ± 0.044 h | 5.99 ± 0.58 h |  | 6.4 ± 0.16 h | 3 ± 0.35 h | 6.15 ± 0.071 h | 11.8 ± 0.14 h | 6.07 ± 0.69 h | 11.7 ± 2 h | 5.62 ± 0.18 h | 12.6 ± 0.23 h
3 | MLSFLWDLASFIVALGVLITVHEFGHFWVARRCGVRVERFSIGFGKALWRRTDKLGTEYVIALIPLGGYVKMLDERAEPVVPELRHHAFNNKSVGQRAAIIAAGPVANFIFAIFAYWLVFIIGVPGVRPVVGEIAANSIAAEAQIAPGTELKAVDGIETPDWDAVRLQLVDKIGDESTTITVAPFGSDQRRDVKLDLRHWAFEPDKEDPVSSLGIRPRGPQIEPVLENVQPNSAASKAGLQAGDRIVKVDGQPLTQWVTFVMLVRDNPGKSLALEIERQGSPLSLTLIPESKPGNGKAIGFVGIEPKVIPLPDEYKVVRQYGPFNAIVEATDKTWQLMKLTVSMLGKLITGDVKLNNLSGPISIAKGAGMTAELGVVYYLPFLALISVNLGIINLFPLPVLDGGHLLFLAIEKIKGGPVSERVQDFCYRIGSILLVLLMGLALFNDFSRL [P0AEH1] | 5.38 ± 0.54 h | 4.76 ± 0.25 h | 4.25 ± 0.049 h | 5.088 ± 0.044 h | 4.624 ± 0.034 h | 2.69 ± 0.22 h | 4.23 ± 0.79 h | 7.59 ± 0.17 h | 4.2 ± 0.15 h | 7.28 ± 0.63 h | 4.17 ± 0.6 h | 6.21 ± 0.8 h
4 | MLSGKDLGRAIEQAINKKIASGSVKSKAEVARHFKVQPPSIYDWIKKGSISKDKLPELWRFFSDVVGPEHWGLNEYPIPTPTNSDTKSELLDINNLYQAASDEIRAIVAFLLSGNATEPDWVDHDVRAYIAAMEMKVGKYLKALESERKSQNITKTGT |  | 4.75 h | 5.53 ± 0.81 h | 7.1 h | 5.32 h |  | 5.48 h | 9.89 h | 4.71 h | 8.69 h | 5.35 h | 10.4 ± 2 h
5 | MLSIFKPAPHKARLPAAEIDPTYRRLRWQIFLGIFFGYAAYYLVRKNFALAMPYLVEQGFSRGDLGFALSGISIAYGFSKFIMGSVSDRSNPRVFLPAGLILAAAVMLFMGFVPWATSSIAVMFVLLFLCGWFQGMGWPPCGRTMVHWWSQKERGGIVSVWNCAHNVGGGIPPLLFLLGMAWFNDWHAALYMPAFCAILVALFAFAMMRDTPQSCGLPPIEEYKNDYPDDYNEKAEQELTAKQIFMQYVLPNKLLWYIAIANVFVYLLRYGILDWSPTYLKEVKHFALDKSSWAYFLYEYAGIPGTLLCGWMSDKVFRGNRGATGVFFMTLVTIATIVYWMNPAGNPTVDMICMIVIGFLIYGPVMLIGLHALELAPKKAAGTAAGFTGLFGYLGGSVAASAIVGYTVDFFGWDGGFMVMIGGSILAVILLIVVMIGEKRRHEQLLQERNGG |  |  |  |  |  |  | 6.02 ± 0.41 h | 11.8 ± 1.2 h |  |  |  | 
